From patent publication US20150064134A1 come the findings set out here.

Among the targets are Yes(h) (human) (UniProt P07947); Met(Y1248H)(h) (human) (UniProt P08581); CaMKI(h) (human) (UniProt Q14012); Snk(h) (human) (UniProt Q9NYY3); SRPK2(h) (human) (UniProt P78362); TLK2(h) (human) (UniProt Q86UE8); EphB2(h) (human) (UniProt P29323); Fgr(h) (human) (UniProt P09769); KDR(h) (human) (UniProt P35968); DMPK(h) (human) (UniProt Q09013); PDGFRα(D842V)(h) (human) (UniProt P16234); ACK1(h) (human) (UniProt Q07912); PRAK(h) (human) (UniProt Q8IW41); MKK7β(h) (human) (UniProt O14733); EphA2(h) (human) (UniProt P29317); EGFR(L858R)(h) (human) (UniProt P00533); FGFR1(V561M)(h) (human) (UniProt P11362); JAK3(h) (human) (UniProt P52333); MLK1(h) (human) (UniProt P80192); FGFR3(h) (human) (UniProt P22607); HIPK3(h) (human) (UniProt Q9H422); Abl(H396P)(h) (human) (UniProt P00519).

Common to all, as to assay: cell-based or functional assay
For a further assay, the target named is T1, GCK(h) (human) (UniProt Q12851).
T1 sequence (looked up): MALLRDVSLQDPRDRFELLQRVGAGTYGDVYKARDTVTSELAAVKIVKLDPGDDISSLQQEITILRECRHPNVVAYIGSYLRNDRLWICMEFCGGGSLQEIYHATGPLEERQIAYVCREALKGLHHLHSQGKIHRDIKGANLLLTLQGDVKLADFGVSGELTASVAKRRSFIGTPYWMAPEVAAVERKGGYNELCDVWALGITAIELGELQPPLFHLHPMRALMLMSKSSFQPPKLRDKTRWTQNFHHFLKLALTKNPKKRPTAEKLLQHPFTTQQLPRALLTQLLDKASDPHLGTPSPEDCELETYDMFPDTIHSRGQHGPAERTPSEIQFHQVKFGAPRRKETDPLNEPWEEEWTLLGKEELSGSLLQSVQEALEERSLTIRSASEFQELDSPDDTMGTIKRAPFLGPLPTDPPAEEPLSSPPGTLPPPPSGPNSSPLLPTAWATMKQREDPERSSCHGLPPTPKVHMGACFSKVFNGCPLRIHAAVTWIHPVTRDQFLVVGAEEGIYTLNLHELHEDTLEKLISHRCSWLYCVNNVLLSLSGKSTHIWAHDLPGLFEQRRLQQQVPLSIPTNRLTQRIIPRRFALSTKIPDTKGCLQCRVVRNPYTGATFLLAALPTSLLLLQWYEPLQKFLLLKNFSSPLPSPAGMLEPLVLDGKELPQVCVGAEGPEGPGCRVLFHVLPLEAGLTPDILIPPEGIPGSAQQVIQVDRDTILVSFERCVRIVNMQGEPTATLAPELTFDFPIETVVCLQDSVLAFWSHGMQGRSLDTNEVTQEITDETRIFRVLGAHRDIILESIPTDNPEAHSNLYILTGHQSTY

The next assay concerns the target T2, EphA8(h) (human) (UniProt P29322).
T2 sequence (looked up): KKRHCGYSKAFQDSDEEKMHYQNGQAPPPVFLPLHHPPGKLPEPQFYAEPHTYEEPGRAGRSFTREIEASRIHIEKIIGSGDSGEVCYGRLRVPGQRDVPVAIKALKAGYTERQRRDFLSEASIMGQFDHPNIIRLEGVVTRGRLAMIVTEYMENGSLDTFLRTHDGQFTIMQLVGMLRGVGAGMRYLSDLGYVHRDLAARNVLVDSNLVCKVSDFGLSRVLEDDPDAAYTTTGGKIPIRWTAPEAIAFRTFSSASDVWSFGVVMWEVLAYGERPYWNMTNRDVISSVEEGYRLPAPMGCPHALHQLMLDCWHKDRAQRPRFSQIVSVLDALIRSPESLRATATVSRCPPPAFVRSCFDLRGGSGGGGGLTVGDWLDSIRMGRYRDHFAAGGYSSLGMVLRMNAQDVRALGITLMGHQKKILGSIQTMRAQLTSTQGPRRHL

The next assay concerns the target T3, Fms(Y969C)(h) (human) (UniProt P07333).
T3 sequence (looked up): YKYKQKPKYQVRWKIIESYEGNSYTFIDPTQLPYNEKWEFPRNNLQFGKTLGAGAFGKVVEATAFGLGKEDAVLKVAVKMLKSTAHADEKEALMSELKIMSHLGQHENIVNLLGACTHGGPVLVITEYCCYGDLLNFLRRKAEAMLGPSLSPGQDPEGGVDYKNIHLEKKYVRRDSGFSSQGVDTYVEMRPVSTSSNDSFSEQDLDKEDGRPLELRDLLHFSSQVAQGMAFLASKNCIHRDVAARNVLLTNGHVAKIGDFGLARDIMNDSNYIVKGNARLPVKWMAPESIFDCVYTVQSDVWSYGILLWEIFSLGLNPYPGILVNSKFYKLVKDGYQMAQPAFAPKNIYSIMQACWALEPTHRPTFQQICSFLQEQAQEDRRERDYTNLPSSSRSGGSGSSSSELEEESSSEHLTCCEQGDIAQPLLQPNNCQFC

Chain of PRAK(h) (human) (Q8IW41 whole entry): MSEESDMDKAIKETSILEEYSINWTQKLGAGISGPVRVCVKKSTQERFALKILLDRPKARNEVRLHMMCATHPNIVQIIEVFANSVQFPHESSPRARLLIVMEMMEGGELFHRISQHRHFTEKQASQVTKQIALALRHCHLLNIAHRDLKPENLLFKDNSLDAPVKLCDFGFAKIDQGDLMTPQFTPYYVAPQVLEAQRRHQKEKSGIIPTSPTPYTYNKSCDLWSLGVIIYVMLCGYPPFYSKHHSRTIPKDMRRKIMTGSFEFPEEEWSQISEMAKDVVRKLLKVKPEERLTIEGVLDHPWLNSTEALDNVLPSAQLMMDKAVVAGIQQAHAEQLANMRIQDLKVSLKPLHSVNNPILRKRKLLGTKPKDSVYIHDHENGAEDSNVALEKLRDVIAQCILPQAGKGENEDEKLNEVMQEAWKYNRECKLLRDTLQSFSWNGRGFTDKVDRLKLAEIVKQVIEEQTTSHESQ
Chain of EphB2(h) (human) (P29323 565-986 limits assumed): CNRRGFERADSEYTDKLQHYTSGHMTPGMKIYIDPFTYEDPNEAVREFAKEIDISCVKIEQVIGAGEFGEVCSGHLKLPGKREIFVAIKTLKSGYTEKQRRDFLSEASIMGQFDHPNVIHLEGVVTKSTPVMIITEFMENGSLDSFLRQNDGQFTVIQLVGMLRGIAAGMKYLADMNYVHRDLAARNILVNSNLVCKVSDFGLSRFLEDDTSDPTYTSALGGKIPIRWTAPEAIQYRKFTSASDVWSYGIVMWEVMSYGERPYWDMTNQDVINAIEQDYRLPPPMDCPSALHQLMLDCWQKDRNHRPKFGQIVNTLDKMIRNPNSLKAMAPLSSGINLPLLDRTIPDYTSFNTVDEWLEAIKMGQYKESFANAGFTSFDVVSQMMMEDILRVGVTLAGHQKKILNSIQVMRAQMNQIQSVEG
Chain of EphA2(h) (human) (P29317 559-976 limits assumed): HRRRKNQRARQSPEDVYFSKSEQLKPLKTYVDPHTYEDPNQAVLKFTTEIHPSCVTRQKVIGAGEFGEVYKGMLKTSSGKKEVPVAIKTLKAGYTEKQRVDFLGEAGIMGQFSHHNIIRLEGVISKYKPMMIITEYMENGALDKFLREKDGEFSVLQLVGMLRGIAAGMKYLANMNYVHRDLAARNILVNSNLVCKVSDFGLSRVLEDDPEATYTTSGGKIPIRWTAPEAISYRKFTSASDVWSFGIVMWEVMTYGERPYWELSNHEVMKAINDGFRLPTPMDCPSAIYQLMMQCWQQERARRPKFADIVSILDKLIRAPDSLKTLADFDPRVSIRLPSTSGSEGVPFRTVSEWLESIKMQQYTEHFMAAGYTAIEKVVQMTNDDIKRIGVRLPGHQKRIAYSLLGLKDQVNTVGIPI
Chain of PDGFRα(D842V)(h) (human) (P16234 550-1089 D842V limits assumed): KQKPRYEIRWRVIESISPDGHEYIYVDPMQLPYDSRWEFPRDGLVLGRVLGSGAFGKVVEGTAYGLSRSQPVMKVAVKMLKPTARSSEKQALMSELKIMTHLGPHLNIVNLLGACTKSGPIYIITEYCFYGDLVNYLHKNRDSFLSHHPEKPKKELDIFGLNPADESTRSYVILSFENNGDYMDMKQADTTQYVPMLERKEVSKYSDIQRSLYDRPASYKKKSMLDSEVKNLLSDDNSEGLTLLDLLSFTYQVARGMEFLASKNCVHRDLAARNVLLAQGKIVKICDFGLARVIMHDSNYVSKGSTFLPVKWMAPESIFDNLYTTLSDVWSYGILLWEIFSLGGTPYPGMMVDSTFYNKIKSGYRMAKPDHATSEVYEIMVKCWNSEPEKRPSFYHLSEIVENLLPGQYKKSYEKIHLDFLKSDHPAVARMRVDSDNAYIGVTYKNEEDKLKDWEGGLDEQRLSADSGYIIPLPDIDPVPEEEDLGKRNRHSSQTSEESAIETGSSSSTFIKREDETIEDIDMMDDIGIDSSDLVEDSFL
Chain of MKK7β(h) (human) (O14733 whole entry): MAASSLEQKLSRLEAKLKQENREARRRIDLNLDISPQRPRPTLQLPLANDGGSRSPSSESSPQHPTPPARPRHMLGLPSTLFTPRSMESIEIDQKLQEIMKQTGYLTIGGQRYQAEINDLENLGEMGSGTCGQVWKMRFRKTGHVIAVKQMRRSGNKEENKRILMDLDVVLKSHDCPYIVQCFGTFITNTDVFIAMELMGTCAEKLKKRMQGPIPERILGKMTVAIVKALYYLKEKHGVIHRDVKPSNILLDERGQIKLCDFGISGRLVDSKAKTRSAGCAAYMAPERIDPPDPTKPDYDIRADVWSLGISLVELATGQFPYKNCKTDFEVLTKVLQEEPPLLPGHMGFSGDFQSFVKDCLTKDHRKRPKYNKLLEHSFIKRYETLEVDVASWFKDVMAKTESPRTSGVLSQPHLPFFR
Chain of FGFR3(h) (human) (P22607 448-759 limits assumed): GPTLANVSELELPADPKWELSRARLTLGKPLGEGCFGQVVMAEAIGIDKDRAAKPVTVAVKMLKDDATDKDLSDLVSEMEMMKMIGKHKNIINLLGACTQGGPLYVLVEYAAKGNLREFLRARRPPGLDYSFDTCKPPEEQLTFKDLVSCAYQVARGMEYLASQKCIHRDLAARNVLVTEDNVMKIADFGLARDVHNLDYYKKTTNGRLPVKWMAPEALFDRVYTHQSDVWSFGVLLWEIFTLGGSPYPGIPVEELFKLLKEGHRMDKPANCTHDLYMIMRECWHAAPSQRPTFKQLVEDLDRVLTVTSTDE
Chain of Abl(H396P)(h) (human) (P00519 27-1130 H396P limits assumed): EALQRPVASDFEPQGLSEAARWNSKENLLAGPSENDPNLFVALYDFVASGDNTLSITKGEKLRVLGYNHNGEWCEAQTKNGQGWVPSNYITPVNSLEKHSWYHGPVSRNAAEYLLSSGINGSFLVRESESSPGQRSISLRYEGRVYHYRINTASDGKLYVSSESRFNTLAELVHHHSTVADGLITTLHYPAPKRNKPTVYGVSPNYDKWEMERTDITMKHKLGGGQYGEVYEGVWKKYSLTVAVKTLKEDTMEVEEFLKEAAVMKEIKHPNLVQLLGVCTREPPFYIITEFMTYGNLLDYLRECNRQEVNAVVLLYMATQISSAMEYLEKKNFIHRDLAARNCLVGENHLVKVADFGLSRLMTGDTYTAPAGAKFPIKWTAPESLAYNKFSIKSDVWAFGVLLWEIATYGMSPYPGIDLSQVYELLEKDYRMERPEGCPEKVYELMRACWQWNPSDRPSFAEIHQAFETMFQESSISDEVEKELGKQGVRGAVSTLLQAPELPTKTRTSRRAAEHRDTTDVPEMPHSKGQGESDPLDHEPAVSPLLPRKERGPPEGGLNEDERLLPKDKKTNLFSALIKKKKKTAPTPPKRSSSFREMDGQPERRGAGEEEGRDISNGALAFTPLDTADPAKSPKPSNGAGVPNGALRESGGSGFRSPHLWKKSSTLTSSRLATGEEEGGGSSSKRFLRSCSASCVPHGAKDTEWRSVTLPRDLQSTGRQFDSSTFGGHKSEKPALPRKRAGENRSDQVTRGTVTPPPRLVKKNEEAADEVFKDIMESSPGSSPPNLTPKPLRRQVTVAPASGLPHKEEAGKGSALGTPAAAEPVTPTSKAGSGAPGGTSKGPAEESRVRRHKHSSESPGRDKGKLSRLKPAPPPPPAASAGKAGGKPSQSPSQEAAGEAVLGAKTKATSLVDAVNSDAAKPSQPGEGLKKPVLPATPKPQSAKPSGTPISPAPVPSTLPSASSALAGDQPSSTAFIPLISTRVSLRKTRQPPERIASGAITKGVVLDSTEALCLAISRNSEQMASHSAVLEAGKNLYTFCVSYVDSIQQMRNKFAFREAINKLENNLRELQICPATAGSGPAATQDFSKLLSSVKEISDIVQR
Chain of FGFR1(V561M)(h) (human) (P11362 456-765 V561M limits assumed): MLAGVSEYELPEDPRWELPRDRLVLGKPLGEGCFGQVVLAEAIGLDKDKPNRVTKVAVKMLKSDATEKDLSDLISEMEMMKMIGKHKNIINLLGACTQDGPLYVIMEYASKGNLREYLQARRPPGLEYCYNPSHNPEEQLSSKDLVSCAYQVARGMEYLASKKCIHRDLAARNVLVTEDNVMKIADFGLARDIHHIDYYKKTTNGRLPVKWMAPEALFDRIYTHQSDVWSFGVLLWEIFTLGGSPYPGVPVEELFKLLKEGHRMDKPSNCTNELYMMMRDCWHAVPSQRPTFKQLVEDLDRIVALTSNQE

Regarding MMI-0400 (peptide), the % activity at 100 µM in the assay with Yes(h) (human) was 14%; in the assay with GCK(h) (human), 66%; in the assay with Met(Y1248H)(h) (human), 63%; with CaMKI(h) (human) it was 0%; in the assay with Snk(h) (human), 131%; in the assay with SRPK2(h) (human), 97%. The % activity at 100 µM with TLK2(h) (human) amounted to 151%; in the assay with EphA8(h) (human), 146%; with EphB2(h) (human) it was 22%; in the assay with Fgr(h) (human), 47%; with KDR(h) (human), 94%; in the assay with DMPK(h) (human), 54%. Also, the % activity at 100 µM in the assay with PDGFRα(D842V)(h) (human) was 118%; in the assay with ACK1(h) (human) it was 95%; in the assay with PRAK(h) (human), 118%; with MKK7β(h) (human) it was 94%; in the assay with EphA2(h) (human), 17%; in the assay with Fms(Y969C)(h) (human) it was 91%. Moreover, the % activity at 100 µM in the assay with EGFR(L858R)(h) (human) was 52%; in the assay with FGFR1(V561M)(h) (human), 74%; in the assay with JAK3(h) (human), 122%; with MLK1(h) (human), 33%; in the assay with FGFR3(h) (human), 0%.

MMI-0500 (peptide): the % activity at 100 µM with GCK(h) (human) is 30%; with Met(Y1248H)(h) (human) it was 126%; with CaMKI(h) (human), -1%; in the assay with HIPK3(h) (human), 85%; with Snk(h) (human), 122%; with SRPK2(h) (human), 80%. The % activity at 100 µM in the assay with TLK2(h) (human) was determined as 133%; with EphA8(h) (human), 337%; with EphB2(h) (human), 70%; with KDR(h) (human) it was 15%; with DMPK(h) (human) it was 12%; in the assay with PDGFRα(D842V)(h) (human) it was 170%. The % activity at 100 µM worked out at 51% with Abl(H396P)(h) (human); 64% with ACK1(h) (human); 95% with PRAK(h) (human); 26% with EGFR(L858R)(h) (human); 95% in the assay with JAK3(h) (human); 43% with MLK1(h) (human). For the same substance, the % activity at 100 µM with FGFR3(h) (human) came out at 10%.

With MMI-0300 (peptide), the % activity at 100 µM with Yes(h) (human) was determined as 67%; in the assay with GCK(h) (human) it was 70%; with CaMKI(h) (human) it was 1%; with HIPK3(h) (human) it was 93%; with EphA8(h) (human) it was 93%; in the assay with EphB2(h) (human), 18%. Besides, the % activity at 100 µM in the assay with Fgr(h) (human) was 60%; with KDR(h) (human) it was 101%; with DMPK(h) (human), 59%; with Abl(H396P)(h) (human), 101%; with PRAK(h) (human), 128%; with MKK7β(h) (human) it was 100%. Also, the % activity at 100 µM with EphA2(h) (human) is 31%; in the assay with Fms(Y969C)(h) (human), 72%; with FGFR1(V561M)(h) (human), 74%; with MLK1(h) (human), 40%.
